Reference: patent publication EP4670793A1

Target: human C1q (human) (UniProt P02745)
Assay: C1q (50 nM) with 100 nM antibody on TNFa-activated HUVECs; bound C1q detected with biotinylated polyclonal anti-C1q and imaging; normalised to isotype IgG

UniProt P02745, sequence (P02745 23-245, chain 1 of 3): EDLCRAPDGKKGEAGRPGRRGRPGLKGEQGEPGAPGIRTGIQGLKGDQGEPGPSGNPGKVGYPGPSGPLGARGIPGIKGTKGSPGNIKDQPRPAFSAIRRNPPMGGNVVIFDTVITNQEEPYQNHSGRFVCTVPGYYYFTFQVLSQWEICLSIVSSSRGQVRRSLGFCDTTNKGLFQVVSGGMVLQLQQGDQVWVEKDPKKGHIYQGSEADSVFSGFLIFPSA
UniProt P02745, sequence (chain, as listed by the source, chain 2 of 3): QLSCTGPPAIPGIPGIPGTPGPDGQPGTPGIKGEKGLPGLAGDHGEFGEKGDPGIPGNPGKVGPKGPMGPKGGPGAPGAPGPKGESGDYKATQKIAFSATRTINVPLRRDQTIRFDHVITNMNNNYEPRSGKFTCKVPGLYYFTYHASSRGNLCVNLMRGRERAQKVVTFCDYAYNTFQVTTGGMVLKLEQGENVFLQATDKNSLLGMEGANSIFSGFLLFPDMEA
UniProt P02745, sequence (chain, as listed by the source, chain 3 of 3): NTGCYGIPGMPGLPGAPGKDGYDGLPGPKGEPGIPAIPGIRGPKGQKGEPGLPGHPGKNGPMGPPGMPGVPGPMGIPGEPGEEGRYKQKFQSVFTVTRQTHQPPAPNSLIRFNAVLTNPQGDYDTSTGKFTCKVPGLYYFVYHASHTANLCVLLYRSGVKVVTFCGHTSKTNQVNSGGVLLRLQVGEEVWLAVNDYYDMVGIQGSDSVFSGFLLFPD

Substance “control antibody comprising murine heavy and light chain variable regions of the anti-C1q antibody M1 (Annexon Biosciences) with hIgG1 and kappa constant regions” has a % inhibition of binding of C1q to activated endothelial cells of 94%.
